The experiment addresses mouse α4 integrin (mouse) (UniProt Q00651). The experiment can be described thus: cell-based or functional assay.
Chain of UniProt Q00651 (Q00651 41-1039, form in doubt, chain 1 of 2): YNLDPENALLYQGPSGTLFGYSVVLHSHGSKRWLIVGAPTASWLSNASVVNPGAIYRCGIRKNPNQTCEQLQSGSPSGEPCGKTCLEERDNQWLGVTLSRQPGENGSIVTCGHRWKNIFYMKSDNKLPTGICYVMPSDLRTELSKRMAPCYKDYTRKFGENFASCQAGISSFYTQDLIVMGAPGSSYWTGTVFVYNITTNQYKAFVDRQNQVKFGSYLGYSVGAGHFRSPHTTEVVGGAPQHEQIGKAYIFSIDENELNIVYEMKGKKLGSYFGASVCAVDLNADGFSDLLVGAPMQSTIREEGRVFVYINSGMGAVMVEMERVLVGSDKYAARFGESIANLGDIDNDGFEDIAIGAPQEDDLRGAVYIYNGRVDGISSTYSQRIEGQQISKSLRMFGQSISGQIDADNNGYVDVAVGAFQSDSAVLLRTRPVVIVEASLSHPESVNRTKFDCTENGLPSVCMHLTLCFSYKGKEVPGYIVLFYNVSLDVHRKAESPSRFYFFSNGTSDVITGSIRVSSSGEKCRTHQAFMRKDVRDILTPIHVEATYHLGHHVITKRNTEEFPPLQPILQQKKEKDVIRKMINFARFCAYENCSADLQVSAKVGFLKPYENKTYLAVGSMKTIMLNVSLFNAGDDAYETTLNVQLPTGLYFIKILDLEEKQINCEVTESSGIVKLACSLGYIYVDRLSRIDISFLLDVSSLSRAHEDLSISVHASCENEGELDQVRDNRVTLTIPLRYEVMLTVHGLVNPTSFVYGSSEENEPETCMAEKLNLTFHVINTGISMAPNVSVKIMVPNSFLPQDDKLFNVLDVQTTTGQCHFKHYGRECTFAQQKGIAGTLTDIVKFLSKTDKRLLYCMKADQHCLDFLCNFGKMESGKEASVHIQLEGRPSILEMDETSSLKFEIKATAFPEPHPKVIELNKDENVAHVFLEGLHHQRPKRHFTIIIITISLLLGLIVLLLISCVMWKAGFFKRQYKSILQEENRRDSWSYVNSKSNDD
Chain of UniProt Q00651 (chain, as listed by the source, form in doubt, chain 2 of 2): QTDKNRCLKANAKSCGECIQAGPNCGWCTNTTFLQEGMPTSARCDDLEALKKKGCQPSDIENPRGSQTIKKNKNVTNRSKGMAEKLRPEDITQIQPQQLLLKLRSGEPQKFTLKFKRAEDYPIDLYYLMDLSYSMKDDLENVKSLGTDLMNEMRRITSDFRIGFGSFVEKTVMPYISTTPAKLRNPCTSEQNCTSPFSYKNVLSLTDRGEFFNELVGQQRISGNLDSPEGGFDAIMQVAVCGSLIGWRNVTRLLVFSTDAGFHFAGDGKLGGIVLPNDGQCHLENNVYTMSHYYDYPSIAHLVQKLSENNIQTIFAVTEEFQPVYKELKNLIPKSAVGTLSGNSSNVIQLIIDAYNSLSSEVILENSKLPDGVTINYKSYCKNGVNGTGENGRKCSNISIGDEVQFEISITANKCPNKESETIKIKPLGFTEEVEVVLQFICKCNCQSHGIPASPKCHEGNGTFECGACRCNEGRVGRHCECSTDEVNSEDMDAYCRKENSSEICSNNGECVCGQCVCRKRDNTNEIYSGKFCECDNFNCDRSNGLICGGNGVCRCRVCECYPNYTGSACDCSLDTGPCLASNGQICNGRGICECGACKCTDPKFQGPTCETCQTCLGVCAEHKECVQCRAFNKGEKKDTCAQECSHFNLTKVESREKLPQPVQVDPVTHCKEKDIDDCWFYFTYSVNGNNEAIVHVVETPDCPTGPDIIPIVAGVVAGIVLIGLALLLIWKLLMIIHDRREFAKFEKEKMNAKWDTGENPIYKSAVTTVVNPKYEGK

In turn, “anti-α4 integrin antibody (clone R1-2) (Pharmingen)” returned an inhibition of growth of B16-BL6 cells (Cell Counting Kit 8, O.D. 450), 10 µg/ml antibody of 20%.

These data come from patent US20080152653A1.
